Data published in the supplement of paper PMC10065799, “High-throughput profiling of sequence recognition by tyrosine kinases and SH2 domains using bacterial peptide display” (eLife, 2023).

Tests used:
c-Abl (mouse) = test: phosphorylation enrichment, bacterial display (enrichment ratio); higher = better substrate or ligand; peptides without Tyr show the background
Fer (mouse) = test: as above
Fes = Fes (UniProt P07332); test: as above
FGFR1 = FGFR1 (UniProt P11362); test: as above
c-Src = test: as above
EPHB2 = EPHB2 (UniProt P29323); test: as above
Jak2 = Jak2 (UniProt O60674); test: as above
Hck = Hck (UniProt P08631); test: as above
Fyn = Fyn (UniProt P06241); test: as above
MERTK = MERTK (UniProt Q12866); test: as above
AncSZ = test: as above
EPHB1 = EPHB1 (UniProt P54762); test: as above
FGFR3 = FGFR3 (UniProt P22607); test: as above
Grb2 SH2 = Grb2 SH2 (UniProt P62993); test: SH2 binding enrichment of the phosphorylated peptide, bacterial display (enrichment ratio); higher = better substrate or ligand; peptides without Tyr show the background
SHP2-C SH2 = test: as above
c-Src SH2 = test: as above
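Throughout, for SH2 binding enrichment of the phosphorylated peptide, bacterial display: peptide library displayed on the E. coli surface as eCPX fusions, selected cells deep-sequenced, score is each peptide's frequency after selection divided by its frequency in the input.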
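Throughout, for phosphorylation enrichment, bacterial display: 11-residue human phosphosite peptides and single-mutation variants displayed on the E. coli surface, counted by deep sequencing, each peptide's frequency after selection divided by its frequency in the unselected input library; frequency after pTyr selection over input frequency; kinase dosed for 20-30% of maximal phosphorylation in three min.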

Sequence of FGFR3 (P22607 whole entry, looked up): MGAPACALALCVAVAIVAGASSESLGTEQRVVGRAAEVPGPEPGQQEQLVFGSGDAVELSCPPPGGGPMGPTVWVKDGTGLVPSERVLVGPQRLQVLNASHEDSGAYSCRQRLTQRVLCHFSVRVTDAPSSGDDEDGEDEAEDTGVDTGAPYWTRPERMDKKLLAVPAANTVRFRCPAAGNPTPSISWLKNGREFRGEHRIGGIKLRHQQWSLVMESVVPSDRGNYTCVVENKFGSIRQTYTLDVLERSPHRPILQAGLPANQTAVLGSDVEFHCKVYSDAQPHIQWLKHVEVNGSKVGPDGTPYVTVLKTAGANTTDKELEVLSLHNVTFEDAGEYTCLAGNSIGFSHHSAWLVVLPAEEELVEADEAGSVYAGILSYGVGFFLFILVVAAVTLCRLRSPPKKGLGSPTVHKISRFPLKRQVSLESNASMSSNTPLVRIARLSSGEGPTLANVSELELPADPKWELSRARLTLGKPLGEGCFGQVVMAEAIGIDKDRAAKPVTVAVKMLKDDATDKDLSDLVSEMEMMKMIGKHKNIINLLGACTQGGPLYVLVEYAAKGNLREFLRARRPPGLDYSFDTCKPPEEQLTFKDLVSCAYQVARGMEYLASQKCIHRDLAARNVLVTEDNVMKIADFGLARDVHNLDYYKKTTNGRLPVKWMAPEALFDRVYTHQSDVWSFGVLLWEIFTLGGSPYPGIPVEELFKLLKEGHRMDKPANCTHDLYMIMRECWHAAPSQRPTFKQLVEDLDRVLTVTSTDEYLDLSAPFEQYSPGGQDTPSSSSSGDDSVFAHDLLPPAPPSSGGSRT
Sequence of Fyn (P06241 whole entry, looked up): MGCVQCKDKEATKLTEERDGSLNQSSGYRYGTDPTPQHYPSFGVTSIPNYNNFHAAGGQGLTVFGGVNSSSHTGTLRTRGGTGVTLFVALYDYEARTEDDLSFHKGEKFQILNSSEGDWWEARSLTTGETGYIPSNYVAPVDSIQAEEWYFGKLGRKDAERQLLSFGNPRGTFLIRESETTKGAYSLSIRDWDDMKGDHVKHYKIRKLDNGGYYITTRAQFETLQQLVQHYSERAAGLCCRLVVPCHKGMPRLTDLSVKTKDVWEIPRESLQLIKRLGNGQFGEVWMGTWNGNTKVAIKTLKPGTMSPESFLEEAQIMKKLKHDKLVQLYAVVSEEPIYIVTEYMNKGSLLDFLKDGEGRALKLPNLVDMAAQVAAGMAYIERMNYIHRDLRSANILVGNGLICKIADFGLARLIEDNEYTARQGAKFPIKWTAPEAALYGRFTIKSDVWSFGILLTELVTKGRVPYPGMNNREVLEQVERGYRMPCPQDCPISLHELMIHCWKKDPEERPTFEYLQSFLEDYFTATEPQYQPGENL
Sequence of EPHB1 (P54762 whole entry, looked up): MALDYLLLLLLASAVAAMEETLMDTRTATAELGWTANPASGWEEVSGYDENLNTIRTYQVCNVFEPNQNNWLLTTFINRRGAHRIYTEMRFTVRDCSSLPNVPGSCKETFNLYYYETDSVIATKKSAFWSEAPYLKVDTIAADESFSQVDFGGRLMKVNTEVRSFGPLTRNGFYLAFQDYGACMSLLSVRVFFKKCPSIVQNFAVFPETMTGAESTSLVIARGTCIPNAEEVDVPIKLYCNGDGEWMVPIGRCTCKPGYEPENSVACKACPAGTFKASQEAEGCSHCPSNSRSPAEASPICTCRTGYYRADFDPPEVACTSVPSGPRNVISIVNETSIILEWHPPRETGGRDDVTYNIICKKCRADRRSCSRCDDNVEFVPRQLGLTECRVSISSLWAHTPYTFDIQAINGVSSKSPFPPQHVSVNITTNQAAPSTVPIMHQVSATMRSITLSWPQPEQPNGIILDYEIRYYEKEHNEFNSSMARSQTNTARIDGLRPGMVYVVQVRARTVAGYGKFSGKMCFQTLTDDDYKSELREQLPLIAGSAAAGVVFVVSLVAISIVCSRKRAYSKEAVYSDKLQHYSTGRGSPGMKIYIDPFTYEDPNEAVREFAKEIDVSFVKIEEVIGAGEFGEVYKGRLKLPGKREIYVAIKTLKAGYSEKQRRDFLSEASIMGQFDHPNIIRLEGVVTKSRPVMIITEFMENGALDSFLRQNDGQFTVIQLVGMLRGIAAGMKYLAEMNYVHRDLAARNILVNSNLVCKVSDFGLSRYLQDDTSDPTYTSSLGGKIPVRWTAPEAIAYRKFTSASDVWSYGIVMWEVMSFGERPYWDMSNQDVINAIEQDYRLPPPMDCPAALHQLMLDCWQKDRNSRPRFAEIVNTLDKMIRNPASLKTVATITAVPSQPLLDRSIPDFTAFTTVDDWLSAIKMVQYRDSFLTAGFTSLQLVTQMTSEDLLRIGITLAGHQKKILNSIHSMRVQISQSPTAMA
Sequence of EPHB2 (P29323 whole entry, looked up): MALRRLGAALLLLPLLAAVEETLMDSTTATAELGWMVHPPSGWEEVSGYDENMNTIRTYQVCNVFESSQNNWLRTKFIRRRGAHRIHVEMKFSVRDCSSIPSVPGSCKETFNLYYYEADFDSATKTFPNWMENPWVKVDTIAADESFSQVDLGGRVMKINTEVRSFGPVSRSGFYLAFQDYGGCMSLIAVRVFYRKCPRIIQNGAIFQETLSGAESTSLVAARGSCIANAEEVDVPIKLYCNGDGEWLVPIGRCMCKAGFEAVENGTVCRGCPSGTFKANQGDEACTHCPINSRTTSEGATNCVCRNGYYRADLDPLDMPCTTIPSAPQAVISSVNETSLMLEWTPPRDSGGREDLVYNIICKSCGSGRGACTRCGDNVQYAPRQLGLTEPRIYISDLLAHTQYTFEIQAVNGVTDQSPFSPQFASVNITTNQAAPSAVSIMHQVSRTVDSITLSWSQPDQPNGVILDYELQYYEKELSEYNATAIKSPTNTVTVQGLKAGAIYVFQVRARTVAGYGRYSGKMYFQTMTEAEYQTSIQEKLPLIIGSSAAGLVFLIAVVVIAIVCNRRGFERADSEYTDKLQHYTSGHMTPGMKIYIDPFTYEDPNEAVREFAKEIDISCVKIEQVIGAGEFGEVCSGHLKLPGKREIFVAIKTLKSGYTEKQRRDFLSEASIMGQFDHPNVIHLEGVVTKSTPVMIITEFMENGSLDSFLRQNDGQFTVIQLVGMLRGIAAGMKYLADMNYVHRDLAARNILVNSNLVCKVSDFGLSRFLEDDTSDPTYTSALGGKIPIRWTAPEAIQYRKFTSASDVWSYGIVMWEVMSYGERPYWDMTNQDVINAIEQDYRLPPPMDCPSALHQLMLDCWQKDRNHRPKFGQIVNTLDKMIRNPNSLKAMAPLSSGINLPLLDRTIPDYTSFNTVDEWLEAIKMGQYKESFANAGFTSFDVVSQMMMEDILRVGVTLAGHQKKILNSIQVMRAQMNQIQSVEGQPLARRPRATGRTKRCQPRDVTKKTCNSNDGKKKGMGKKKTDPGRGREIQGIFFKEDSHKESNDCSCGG
Sequence of Fes (P07332 whole entry, looked up): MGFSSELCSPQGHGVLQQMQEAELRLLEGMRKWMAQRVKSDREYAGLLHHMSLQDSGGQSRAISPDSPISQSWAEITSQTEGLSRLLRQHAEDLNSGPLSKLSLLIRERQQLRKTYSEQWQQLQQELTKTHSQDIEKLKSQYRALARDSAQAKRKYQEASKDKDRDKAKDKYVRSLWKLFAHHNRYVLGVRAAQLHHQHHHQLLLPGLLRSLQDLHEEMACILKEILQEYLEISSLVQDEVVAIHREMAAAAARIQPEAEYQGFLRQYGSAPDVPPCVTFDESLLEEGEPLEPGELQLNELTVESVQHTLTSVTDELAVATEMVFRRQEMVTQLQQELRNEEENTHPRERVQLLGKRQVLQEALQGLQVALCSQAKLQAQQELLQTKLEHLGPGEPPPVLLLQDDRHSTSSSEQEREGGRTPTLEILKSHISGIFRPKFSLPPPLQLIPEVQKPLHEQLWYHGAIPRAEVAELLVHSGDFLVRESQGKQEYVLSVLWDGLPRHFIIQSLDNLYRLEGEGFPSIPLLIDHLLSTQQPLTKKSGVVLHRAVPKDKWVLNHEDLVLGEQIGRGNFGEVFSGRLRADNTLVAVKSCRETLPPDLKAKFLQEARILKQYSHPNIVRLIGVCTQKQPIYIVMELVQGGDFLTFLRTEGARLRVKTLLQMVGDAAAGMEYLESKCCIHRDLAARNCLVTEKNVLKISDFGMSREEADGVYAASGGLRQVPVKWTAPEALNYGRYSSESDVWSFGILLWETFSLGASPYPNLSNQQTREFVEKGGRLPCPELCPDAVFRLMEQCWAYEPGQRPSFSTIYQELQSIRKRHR
Sequence of Hck (P08631 whole entry, looked up): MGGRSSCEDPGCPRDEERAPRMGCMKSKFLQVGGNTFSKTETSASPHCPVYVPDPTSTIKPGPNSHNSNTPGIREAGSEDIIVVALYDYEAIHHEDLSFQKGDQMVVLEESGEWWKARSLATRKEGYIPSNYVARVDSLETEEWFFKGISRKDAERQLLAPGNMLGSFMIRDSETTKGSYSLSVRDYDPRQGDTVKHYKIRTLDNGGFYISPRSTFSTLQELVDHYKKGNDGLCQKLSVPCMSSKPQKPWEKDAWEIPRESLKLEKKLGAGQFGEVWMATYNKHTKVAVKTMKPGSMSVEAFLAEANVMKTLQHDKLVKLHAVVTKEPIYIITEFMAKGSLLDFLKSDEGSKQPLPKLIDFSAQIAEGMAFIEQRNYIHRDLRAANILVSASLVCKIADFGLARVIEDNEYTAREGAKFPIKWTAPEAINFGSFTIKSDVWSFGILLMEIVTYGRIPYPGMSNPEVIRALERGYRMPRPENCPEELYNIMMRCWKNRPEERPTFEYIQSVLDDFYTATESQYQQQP

| SH2 binding enrichment (Grb2 SH2) | SH2 binding enrichment (SHP2-C SH2) | SH2 binding enrichment (c-Src SH2) | Sequence | phosphorylation enrichment (c-Abl (mouse)) | phosphorylation enrichment (Fer (mouse)) | phosphorylation enrichment (Fes) | phosphorylation enrichment (FGFR1) | phosphorylation enrichment (c-Src) | phosphorylation enrichment (EPHB2) | phosphorylation enrichment (Jak2) | phosphorylation enrichment (Hck) | phosphorylation enrichment (Fyn) | phosphorylation enrichment (MERTK) | phosphorylation enrichment (AncSZ) | phosphorylation enrichment (EPHB1) | phosphorylation enrichment (FGFR3) |
| --- | --- | --- | --- | --- | --- | --- | --- | --- | --- | --- | --- | --- | --- | --- | --- | --- |
| 2.15 | 0.889 | 1.05 | NFCPGYNNFFN [USH2A_Y467_R464C_YF] | 0.577 | 0.455 | 0.79 | 0.415 | 0.719 | 0.43 | 0.775 | 0.426 | 0.434 | 0.458 | 0.733 | 0.393 | 0.524 |
| 0.821 | 0.693 | 0.572 | AGLEEYSAMRD [HRAS_Y64_Q61L] | 0.636 | 0.495 | 0.997 | 0.52 | 0.484 | 0.585 | 0.837 | 0.523 | 0.45 | 0.429 | 0.952 | 0.568 | 0.666 |
| 0.834 | 0.702 | 0.419 | QEGPEYWDQNT [HLA-A_Y83_E87N] | 1.25 | 0.802 | 1.42 | 0.711 | 0.546 | 0.719 | 1.36 | 0.632 | 0.6 | 0.625 | 1.5 | 0.898 | 1.14 |
| 0.943 | 0.539 | 0.567 | RGLQVYHKRNA [LRP2_Y2010_R2012K] | 0.561 | 0.517 | 0.985 | 0.433 | 0.497 | 0.468 | 0.654 | 0.59 | 0.496 | 0.496 | 0.545 | 0.45 | 0.642 |
| 0.988 | 0.981 | 10.1 | VVRSLYEDLED [VHL_Y185_I180V] | 0.835 | 1.24 | 1.24 | 0.556 | 0.544 | 0.984 | 1.21 | 0.573 | 0.587 | 0.525 | 1.26 | 0.711 | 0.792 |
| 0.95 | 0.718 | 0.53 | GREYIYVDPMQ [PDGFRA_Y574_H570R] | 5.21 | 1.21 | 0.801 | 12.7 | 1.86 | 8.24 | 1.17 | 2.05 | 1.73 | 4.27 | 3.12 | 6.9 | 8.94 |
| 0.812 | 0.935 | 0.709 | DYYDLYGGEKL [PTPN11_Y66_F71L] | 0.871 | 1.32 | 1.5 | 16.6 | 5.5 | 8.09 | 3.12 | 5.89 | 5.27 | 3.9 | 3.2 | 7.36 | 14.1 |
| 1 | 0.782 | 0.481 | NQNIGYKLGHR [KCNN3_Y268] | 0.313 | 0.322 | 0.49 | 0.339 | 0.398 | 0.303 | 0.391 | 0.396 | 0.361 | 0.344 | 0.402 | 0.324 | 0.358 |
| 0.641 | 0.831 | 0.507 | HSGIFYKPESL [L2HGDH_Y103_YF] | 3.79 | 1.05 | 1.82 | 1.11 | 1.45 | 1.11 | 2.08 | 0.704 | 0.642 | 0.934 | 1.34 | 0.793 | 0.934 |
| 0.927 | 0.707 | 0.565 | RFLERDIFNRE [HLA-DPB1_Y57_Y57D_YF] | 1.29 | 1.01 | 1.01 | 0.682 | 0.584 | 0.569 | 1.69 | 0.771 | 0.518 | 0.548 | 1.17 | 0.769 | 1.1 |
| 0.886 | 0.572 | 0.332 | RAIDMYLMGCF [GABRB2_Y308_K303R] | 1.58 | 0.799 | 1.79 | 0.777 | 1.29 | 0.706 | 1.83 | 0.888 | 0.907 | 0.601 | 1.87 | 0.848 | 1.19 |
| 0.671 | 0.697 | 0.509 | GLAELYEYQKK [CKAP5_Y1854_K1857Q] | 0.529 | 0.87 | 0.985 | 0.61 | 0.813 | 0.472 | 0.917 | 0.857 | 0.532 | 0.574 | 1.08 | 0.909 | 0.629 |
| 0.629 | 0.565 | 0.48 | QKKEEYKMALY [F8_Y1990_R1985Q] | 0.902 | 0.895 | 1.41 | 0.527 | 0.978 | 0.626 | 1.63 | 0.496 | 0.603 | 0.693 | 1.72 | 0.984 | 0.582 |
| 0.849 | 0.76 | 0.6 | AVSHRYDLGGL [QPRT_Y162_A158V] | 0.379 | 0.344 | 0.527 | 0.347 | 0.385 | 0.524 | 0.467 | 0.415 | 0.337 | 0.379 | 0.515 | 0.403 | 0.42 |
| 0.817 | 0.667 | 2.29 | HEVHIYEKSGA [ARPC1B_Y35] | 1.69 | 1.03 | 1.74 | 0.673 | 1.48 | 0.611 | 1.06 | 1.68 | 1.01 | 0.77 | 1.38 | 1.1 | 0.993 |
| 1.09 | 0.906 | 0.744 | LITTLYIGFLD [KCNQ1_Y267_G272D] | 2.36 | 1.78 | 3.12 | 0.777 | 4.15 | 1.16 | 3.07 | 1.71 | 2.56 | 0.929 | 2.56 | 1.25 | 1.35 |
| 0.924 | 0.828 | 0.573 | IEDNKYTAREG [HCK_Y411_E410K] | 0.756 | 0.392 | 1.03 | 0.558 | 0.506 | 0.543 | 0.788 | 0.469 | 0.507 | 0.356 | 0.926 | 0.588 | 0.545 |

| SH2 binding enrichment (Grb2 SH2) | SH2 binding enrichment (SHP2-C SH2) | SH2 binding enrichment (c-Src SH2) | Sequence | phosphorylation enrichment (c-Abl (mouse)) | phosphorylation enrichment (Fer (mouse)) | phosphorylation enrichment (Fes) | phosphorylation enrichment (FGFR1) | phosphorylation enrichment (c-Src) | phosphorylation enrichment (EPHB2) | phosphorylation enrichment (Jak2) | phosphorylation enrichment (Hck) | phosphorylation enrichment (Fyn) | phosphorylation enrichment (MERTK) | phosphorylation enrichment (AncSZ) | phosphorylation enrichment (EPHB1) | phosphorylation enrichment (FGFR3) |
| --- | --- | --- | --- | --- | --- | --- | --- | --- | --- | --- | --- | --- | --- | --- | --- | --- |
| 0.788 | 0.503 | 0.571 | NSNSDYVDILP [SH2D1B_Y127_V130I] | 1 | 0.682 | 1.22 | 3.99 | 0.573 | 3.01 | 1.09 | 0.623 | 0.514 | 0.6 | 1.85 | 3.31 | 3.11 |
| 0.955 | 1.31 | 0.434 | VTSLKYSTPPY [BRIP1_Y916_S919P] | 0.483 | 0.352 | 0.681 | 0.358 | 0.389 | 0.344 | 0.565 | 0.396 | 0.366 | 0.387 | 0.625 | 0.355 | 0.515 |
| 0.835 | 0.671 | 0.537 | SVVVPYGPPEV [TP53_Y220_E221G] | 0.601 | 0.402 | 0.739 | 0.57 | 0.425 | 0.543 | 0.689 | 0.41 | 0.46 | 0.476 | 0.75 | 0.472 | 0.556 |
| 0.591 | 0.584 | 0.343 | DFAIVYGTIIL [GPR179_Y460_G455D] | 0.846 | 0.727 | 1.51 | 0.565 | 0.483 | 0.777 | 1.16 | 0.665 | 0.692 | 0.402 | 1.52 | 0.732 | 1.1 |
| 0.525 | 0.487 | 0.436 | PMWHPYKVDVT [TP53TG5_Y255] | 0.433 | 0.611 | 1.27 | 0.561 | 2.06 | 0.54 | 0.643 | 0.5 | 1.3 | 0.398 | 1.09 | 0.753 | 0.872 |
| 1.57 | 1.41 | 1.34 | CKLFQYFLDHL [ATRX_Y1849_YF] | 0.933 | 0.635 | 1.41 | 0.647 | 0.524 | 0.605 | 1.3 | 0.585 | 0.536 | 0.526 | 1.37 | 0.693 | 0.873 |
| 0.896 | 0.6 | 0.604 | DAKAIYDFTDT [PDK1_Y136] | 1.03 | 5.43 | 1.15 | 0.604 | 5.87 | 1.85 | 0.994 | 3.18 | 7.96 | 5.88 | 1.3 | 1.43 | 0.665 |
| 1.08 | 3.3 | 1.58 | ATDLAYYLVRE [ASL_Y375_K380E] | 0.527 | 0.43 | 0.909 | 8.49 | 1.46 | 0.476 | 2.38 | 1.01 | 0.929 | 1.23 | 1.21 | 0.675 | 6.9 |
| 1.01 | 0.901 | 0.661 | TSFSGYRCHRH [NKAPL_Y94_Y96C_YF] | 0.562 | 0.464 | 0.727 | 0.552 | 0.414 | 0.486 | 0.718 | 0.469 | 0.419 | 0.469 | 0.703 | 0.576 | 0.45 |
| 0.864 | 0.748 | 0.687 | GEETDYTPVWC [UROD_Y30] | 0.785 | 1.02 | 1.43 | 0.655 | 0.552 | 0.791 | 1.04 | 0.556 | 0.535 | 0.468 | 1.62 | 0.587 | 0.92 |
| 0.808 | 0.883 | 0.544 | HLTLVYGGIFL [FBP1_Y259_R255L] | 1.4 | 0.699 | 1.81 | 0.745 | 2.71 | 0.849 | 1.96 | 2.09 | 2.72 | 0.507 | 1.61 | 0.743 | 1.15 |
| 1.25 | 0.717 | 0.513 | ADCRFYTFPQM [GAMT_Y223_A224T_YF] | 0.784 | 1.99 | 1.48 | 0.584 | 1.24 | 0.813 | 1.2 | 0.534 | 0.811 | 5.08 | 1.88 | 1.07 | 0.895 |
| 0.742 | 0.716 | 0.759 | LARDMDDKEYY [MET_Y1230_Y1230D] | 1.2 | 0.643 | 1.64 | 0.867 | 0.531 | 1.13 | 1.37 | 0.723 | 0.691 | 0.489 | 1.87 | 0.828 | 1.19 |
| 1.01 | 0.968 | 0.393 | SNNYIYKTLGV [FAM83B_Y639] | 0.494 | 0.354 | 0.58 | 0.484 | 0.476 | 0.328 | 0.46 | 0.549 | 0.467 | 0.357 | 0.523 | 0.48 | 0.546 |
| 0.887 | 1.33 | 0.505 | ARMTNYGLPRF [TSPAN12_Y138_YF] | 0.496 | 0.409 | 0.636 | 0.42 | 0.519 | 0.542 | 0.503 | 0.413 | 0.401 | 0.511 | 0.547 | 0.424 | 0.501 |
| 0.98 | 0.739 | 1.04 | RGDCMYAPLLG [AR_Y269] | 5.89 | 4.16 | 0.885 | 3.08 | 5.61 | 8.4 | 0.743 | 10.9 | 8.2 | 10.4 | 0.898 | 7.23 | 1.83 |
